Where a chain is given by its changes, count along the chain named.
Experiments:
Experiment in all cases: flow cytometry on cells
B7 L179V = molecular target: T1, B7 L179V (mouse, UniProt Q00609 38-306, L179V)
T1 sequence (looked up): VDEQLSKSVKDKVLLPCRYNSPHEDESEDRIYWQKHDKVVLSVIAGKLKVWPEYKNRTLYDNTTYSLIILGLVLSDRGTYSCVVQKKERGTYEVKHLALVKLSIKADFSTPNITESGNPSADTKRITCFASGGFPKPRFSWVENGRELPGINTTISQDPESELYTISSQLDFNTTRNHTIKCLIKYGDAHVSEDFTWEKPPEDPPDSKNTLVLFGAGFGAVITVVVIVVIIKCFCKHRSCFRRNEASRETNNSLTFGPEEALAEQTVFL

B7 S177A = molecular target: T2, B7 S177A (mouse, UniProt Q00609 38-306, S177A)
T2 sequence (looked up): T1 sequence (looked up) with S140A, V142L

B7 P172A = molecular target: T3, B7 P172A (mouse, UniProt Q00609 38-306, P172A)
T3 sequence (looked up): T1 sequence (looked up) with P135A, V142L

B7 LE/VD (L179V, E180D) = molecular target: T4, B7 LE/VD (L179V, E180D) (mouse, UniProt Q00609 38-306, L179E180>VD)
T4 sequence (looked up): T1 sequence (looked up) with E143D

B7 E199A = molecular target: T5, B7 E199A (mouse, UniProt Q00609 38-306, E199A)
T5 sequence (looked up): T1 sequence (looked up) with V142L, E162A

B7 L200A = molecular target: T6, B7 L200A (mouse, UniProt Q00609 38-306, L200A)
T6 sequence (looked up): T1 sequence (looked up) with V142L, L163A

B1: CD28Ig (Fc fusion, mouse, UniProt P31041 20-150, looked up)
chain: NKILVKQSPLLVVDSNEVSLSCRYSYNLLAKEFRASLYKGVNSDVEVCVGNGNFTYQPQFRSNAEFNCDGDFDNETVTFRLWNLHVNHTDIYFCKIEFMYPPPYLDNERSNGTIIHIKEKHLCHTQSSPKL
B7 L179V
  % wild-type B7 binding (normalised to anti-B7 mAb 10.16A.1): 18%
  MF (mean fluorescence, control subtracted): 12 MF
B7 S177A
  % wild-type B7 binding (normalised to anti-B7 mAb 10.16A.1): 63%
  MF (mean fluorescence, control subtracted): 40 MF
B7 P172A
  % wild-type B7 binding (normalised to anti-B7 mAb 10.16A.1): 7%
  MF (mean fluorescence, control subtracted): 2 MF
B7 LE/VD (L179V, E180D)
  % wild-type B7 binding (normalised to anti-B7 mAb 10.16A.1): 40%
  MF (mean fluorescence, control subtracted): 16 MF
B7 E199A
  % wild-type B7 binding (normalised to anti-B7 mAb 10.16A.1): 31%
  MF (mean fluorescence, control subtracted): 16 MF
B7 L200A
  % wild-type B7 binding (normalised to anti-B7 mAb 10.16A.1): 53%
  MF (mean fluorescence, control subtracted): 28 MF

Reference: publication PMC2191977 (The Journal of Experimental Medicine, 1995)
